# B1: full-length hC1Q/TNF7, carboxy-terminal V5His6-tagged, expressed in HEK-293 cells (ligand)
# chain: QPRGNQLKGENYSPRYICSIPGLPGPPGPPGANGSPGPHGRIGLPGRDGRDGRKGEKGEKGTAGLRGKTGPLGLAGEKGDQGETGKKGPIGPEGEKGEVGPIGPPGPKGDRGEQGDPGLPGVCRCGSIVLKSAFSVGITTSYPEERLPIIFNKVLFNEGEHYNPATGKFICAFPGIYYFSYDITLANKHLAIGLVHNGQYRIKTFDANTGNHDVASGSTVIYLQPEDEVWLEIFFTDQNGLFSDPGWADSLFSGFLLYVDTDYLDSISEDDEL
# notes: The signal peptide cleavage site is only predicted; Oligomer state as told: dimers, tetramers and higher order oligomers; also called HEK293-expressed full-length hC1Q/TNF7; human C1Q/TNF7; not shown: C-terminal V5His6 tag from the pIntron vector
# Molecular target: the molecule itself
# Experiment: non-reducing vs reducing SDS-PAGE of the purified protein, Western blot with HRP-conjugated anti-V5 antibody (self-association / oligomerization)
# Procedure: Purified recombinant full-length hC1Q/TNF7 protein expressed in HEK-293 cells was treated as follows: N=non-reduced only; N+H=non-reduced plus heating at 100° C. for 10 min; R=reduced only; and R+H=reduced plus heating at 100° C. for 10 min.
# Studies of C1Q and 1C1Q-related proteins, such as adiponectin (Ad), indicate that most of the proteins form trimer, hexamer and higher molecular weight species (Shapiro and Scherer, Curr. Biol. 8:335-338 (1998) herein incorporated by reference in its entirety). To determine the oligomerization status of the hC1Q/TNF7 protein, the HEK293-expressed full-length hC1Q/TNF7 was treated under various conditions: non-reduced only (N); non-reduced plus heating at 100° C. for 10 min (N+H); reduced only (R); and reduced plus heating at 100° C. for 10 min (R+H). […] After heat treatment under non-reducing conditions, hC1Q/TNF7 migrated in 3 major bands: approximately 40, approximately 80, and approximately 160 kDa (Lane 2). In contrast, when hC1Q/TNF7 was treated under reducing conditions with or without heating, it ran as a single band at approximately 40 kDa (Lanes 3 and 4). Similar results were obtained using hC1Q/TNF7-F1 protein and an N-terminal V5His-tagged version of full-length hC1Q/TNF7 (not shown).
protein,measurement,value
B1,binding result,binds

# From patent US20050180949A1 (NUVELO, published 2005)
